T1: biotinylated SnoopLigase (biotin on the AP peptide (BirA biotinylation))
T1 construct: Captured or immobilised on streptavidin-agarose in the elution experiments; also called Biotin-SnoopLigase; biotin-SnoopLigase; not shown: N-terminal His6-tag and flexible GS-rich linker; AP, substrate peptide for BirA biotinylation
T1 chain: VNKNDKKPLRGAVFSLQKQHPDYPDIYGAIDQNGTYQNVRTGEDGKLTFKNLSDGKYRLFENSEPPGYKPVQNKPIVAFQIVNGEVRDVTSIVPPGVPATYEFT


How the values were obtained:
AffiHER2-DogTag = test: cell-based or functional assay
DogTag-mClover3 = test: cell-based or functional assay
MBP-DogTag = test: cell-based or functional assay
SUMO-DogTag = test: cell-based or functional assay
[1] = biological target: DogTag-HaloTag7SS fusion protein; test: cell-based or functional assay
IMX-DogTag = test: cell-based or functional assay
biotinylated SnoopLigase = biological target: T1, biotinylated SnoopLigase; test: competition elution at 37 °C from biotin-SnoopLigase on streptavidin-agarose; SDS-PAGE

| Molecule | Percentage of DogTag partner reacted (AffiHER2-DogTag) [%] | Percentage of SnoopTagJr partner reacted (AffiHER2-DogTag) [%] | Percentage of DogTag partner reacted (DogTag-mClover3) [%] | Percentage of SnoopTagJr partner reacted (DogTag-mClover3) [%] | Percentage of DogTag partner reacted (MBP-DogTag) [%] | Percentage of DogTag partner reacted (SUMO-DogTag) [%] | Percentage of SnoopTagJr partner reacted (SUMO-DogTag) [%] | reaction yield [1] [%] | Percentage of SnoopTagJr partner reacted (MBP-DogTag) [%] | reaction yield (SUMO-DogTag) [%] | reaction yield (IMX-DogTag) [%] | binding result (biotinylated SnoopLigase) |
| --- | --- | --- | --- | --- | --- | --- | --- | --- | --- | --- | --- | --- |
| HaloTag7SS-SnoopTagJr | 100 | 99.3 | 96.1 | 98 | 97 | 99.7 | 99 | – | – | – | – | – |
| MBP-SnoopTagJr | 100 | 93.3 | 85.4 | 79.5 | 95 | 99 | 99.1 | – | – | – | – | – |
| SnoopTagJr-AffiHER2 | 99.9 | 100 | 94 | 99.8 | 98.4 | 99.9 | 99.9 | 90 | 100 | 99 | – | – |
| SnoopTagJr-MBP | – | – | – | – | – | – | – | – | – | – | 96 | – |
| SnoopTagJr-mEGFP | 99.9 | 99.9 | 82.3 | 89.4 | 87.8 | 99.1 | 100 | – | 99.7 | – | – | – |
| SnoopTagJr:DogTag competitor peptide (not fully specified; Asn 17 joined by an isopeptide bond to Lys 9 of SnoopTagJr; Lys 9 joined by an isopeptide bond to Asn 17 of DogTag, Made from SUMO-DogTag and synthetic SnoopTagJr peptide with immobilised HaloTag7-SnoopLigase, then cut from SUMO by Ulp1; also called SnoopTagJr:DogTag peptide conjugate; DogTag:SnoopTagJr peptide) peptide 1: KLGSIEFIKVNK peptide 2: DIPATYEFTDGKHYITNEPIPPK | – | – | – | – | – | – | – | – | – | – | – | binds |

Reference: patent US20200115422A1 (OXFORD UNIVERSITY INNOVATION, published 2020)
